# Laboratory results reported in PMC8657904.
# Experiments:
# [1] = target: CmbHLH2 from chrysanthemum 'Jimba', GAL4 DNA-binding domain fusion (Chrysanthemum x morifolium 'Jimba')
# [2] = target: CmbHLH2.1 (alternative splicing variant of CmbHLH2) from chrysanthemum 'Jimba', GAL4 DNA-binding domain fusion (Chrysanthemum x morifolium 'Jimba')
# Chain of CmbHLH2.1 (alternative splicing variant of CmbHLH2) from chrysanthemum 'Jimba', GAL4 DNA-binding domain fusion (Chrysanthemum x morifolium 'Jimba') (main, as listed by the source mutant): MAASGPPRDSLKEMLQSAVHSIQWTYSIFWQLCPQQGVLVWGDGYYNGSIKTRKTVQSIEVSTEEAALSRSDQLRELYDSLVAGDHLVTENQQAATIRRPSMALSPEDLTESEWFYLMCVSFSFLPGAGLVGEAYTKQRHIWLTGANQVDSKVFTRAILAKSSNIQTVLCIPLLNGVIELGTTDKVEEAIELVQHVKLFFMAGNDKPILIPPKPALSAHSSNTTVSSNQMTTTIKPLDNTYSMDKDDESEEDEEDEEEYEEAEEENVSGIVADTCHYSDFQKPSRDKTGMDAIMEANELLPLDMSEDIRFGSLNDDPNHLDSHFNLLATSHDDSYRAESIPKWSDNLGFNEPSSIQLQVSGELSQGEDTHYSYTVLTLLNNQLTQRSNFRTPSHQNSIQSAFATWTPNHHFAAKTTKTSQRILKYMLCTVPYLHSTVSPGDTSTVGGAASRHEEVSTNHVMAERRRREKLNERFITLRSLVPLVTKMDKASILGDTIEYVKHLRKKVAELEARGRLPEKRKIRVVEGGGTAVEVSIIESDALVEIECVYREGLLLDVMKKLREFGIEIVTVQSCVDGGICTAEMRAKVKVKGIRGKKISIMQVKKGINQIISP
# Chain of CmbHLH2 from chrysanthemum 'Jimba', GAL4 DNA-binding domain fusion (Chrysanthemum x morifolium 'Jimba') (main, as listed by the source): as the sequence (main, as listed by the source mutant) above
substance,measurement,setting,value
"CmMYB6 (transcript20734) from chrysanthemum 'Jimba', GAL4 activation domain fusion (natural protein)","dual-luciferase assay in Nicotiana benthamiana leaves: fold-induced activation of the CmDFR promoter by CmMYB6 together with CmbHLH2, compared to empty vector",[1],> 40 times
same,"dual-luciferase assay in Nicotiana benthamiana leaves: fold-induced activation of the CmDFR promoter by CmMYB6 together with CmbHLH2.1, compared to empty vector",[2],> 10 times
